The data set can be described thus: Circular dichroism: degree of helicity (free, SUVs, micelles, TFE). To be noted: for He (%) free: percent helicity of free, unbound peptide; for He (%) SUVs: percent helicity of peptide-SUV complexes; for He (%) TFE: percent helicity of peptide-TFE solution; for He (%) mics: percent helicity of peptide-micelle complexes. How it is done: Far UV circular dichroism spectra were recorded between 190 and 260 nm (in 0.5 nm or 0.2 nm increments) with a AVIV62DS spectrometer (AVIV Associates, Lakewood, N.J., USA) equipped with a thermoelectric cell holder and sample changer. The instrument was calibrated with (+)-10-camphoric acid. Between one and three scans were collected for each sample, using 10 cm, 5 cm, 1 cm and 0.1 cm path length quartz Suprasil cells, respectively, for peptide concentrations of 10^−7 M to 10^−4 M. The bandwidth was fixed at 1.5 nm and the scan speed to 1 s per wavelength step. The reported data are the mean of at least 2 or 3 independent measurements.
After background substraction, spectra were converted to molar ellipticity (θ) per residue in deg. […] dmol^−1. The peptide concentration was determined by amino acid analysis and also by absorption spectrometry on a Perkin Elmer Lambda 17 UV/Visible spectrophotometer when the peptide contained a chromophore (tryptophane, dansyl, naphtylalanine).
CD spectra were obtained with free, unbound peptide (5 μM in 5 mM phosphate buffer, pH 7.4); with peptide-SUV complexes (20:1 EPC:Chol., Ri=30 and Ri=50); with peptide-micelle complexes (1-myristoyl-2-hydroxy-sn-glycero-3-phosphatidyl choline, Ri=100); and with free, unbound peptide in the presence of 2,2,2-trifluoroethanol (TFE) (5 μM peptide, 90% vol TFE).
The SUVs were obtained by dispersing the lipids (10 mM, 20:1 EPC:Chol., Avanti Polar Lipids, Ala.) in phosphate buffer (5 mM, pH 7.4) with bubbling N2 for 5 min., followed by sonication (1.5 hr.) in a bath sonicator. The homogeneity of the preparation was checked by FPLC.
The micelles were obtained by dispersing the lipid (6 mM 1-myristoyl-2-hydroxy-sn-glycero-3-phosphatidyl choline, Avanti Polar Lipids, AL) in phosphate buffer (5 mM, pH 7.4) with bubbling N2 for 5 min., followed by vortexing.
To obtain the peptide-SUV complexes, SUVs were added to the peptide (5 μM in 5 mM phosphate buffer, pH 7.4) at a phospholipid-peptide molar ratio (Ri) of 30 or 50.
To obtain the peptide-micelle complexes, micelles were added to the peptide (5 μM in 5 mM phosphate buffer, pH 7.4) at a Ri of 100.
All spectra were recorded at 37° C. The stability of peptide 4 (SEQ ID NO:4) as a function of temperature (both free in buffer and in micelles) was determined by recording spectra at a series of different temperatures.
The degree of helicity of peptide 4 (SEQ ID NO:4) as a function of concentration was also determined.
The degree of helicity of the peptides in the various conditions was determined from the mean residue ellipticity at 222 nm (Chen et al., 1974, Biochemistry 13:3350-3359) or by comparing the CD spectra obtained to reference spectra available on databases (16 helical reference spectra from Provencher & Glockner, 1981, Biochemistry 20:33-37; denatured protein reference spectra from Venyaminov et al., 1993, Anal. Biochem. 214:17-24) using the CONTIN curve-fitting algorithm version 2DP, CD-1 pack (Aug. 1982) (Provencher, 1982, Comput. Phys. Commun. 27:213-227, 229-242). Acceptable fit was determined using the statistical analysis methodology provided by the CONTIN algorithm.
A general note: CD spectra are sensitive to the conformation of chiral molecules.

Take “160 (PVLELFENLLERLLDWLQKKLK) [compound 160]”: the “He (%) free” value worked out at 65%, the “He (%) SUVs” value was 75%, the “He (%) TFE” value is listed as 61% and the “He (%) mics” value was determined as 73%.

As for “162 (PVLELFENWLERLLDALQKKLK) [compound 162]”, the “He (%) free” value was 68%, the “He (%) SUVs” value is given as 81% and the “He (%) mics” value amounted to 83%.

Regarding “163 (PVLELFENLLERLWDALQKKLK) [compound 163]”, the “He (%) free” value is 27%, the “He (%) TFE” value was found to be 55% and the “He (%) mics” value is listed as 53%.

Take “164 (PVLELFENLLERLLDAWQKKLK) [compound 164]”: the “He (%) free” value stood at 37%, the “He (%) SUVs” value is listed as 51%, the “He (%) TFE” value is reported as 61% and the “He (%) mics” value stood at 66%.

As to “192 (Ac-PVLDLFKELLEELKQKLK-NH2) [compound 192]”, the “He (%) free” value came to 36% and the “He (%) TFE” value was determined as 56%.

Take “193 (Ac-PVLDLFRELLEELKQKLK-NH2) [compound 193]”: the “He (%) free” value is 34%, the “He (%) SUVs” value worked out at 87%, the “He (%) TFE” value came to 87% and the “He (%) mics” value was determined as 88%.

Take “194 (Ac-PVLELFRELLEELKQKLK-NH2) [compound 194]”: the “He (%) free” value is given as 38%, the “He (%) TFE” value amounted to 93% and the “He (%) mics” value is recorded as 93%.

Take “197 (Ac-PLLDLFRELLEELKQKLK-NH2) [compound 197]”: the “He (%) free” value is listed as 43%, the “He (%) TFE” value was determined as 69% and the “He (%) mics” value turned out to be 70%.

Turning to “199 (Ac-PVLDLFRELWEELKQKLK-NH2) [compound 199]”, the “He (%) free” value amounted to 35%, the “He (%) SUVs” value came to 80%, the “He (%) TFE” value is 79% and the “He (%) mics” value is reported as 77%.

As for 209 (PVLDLFRELLNELLQKLK) [compound 209], the “He (%) free” value stood at 54%, the “He (%) SUVs” value turned out to be 67%, the “He (%) TFE” value is given as 62% and the “He (%) mics” value was found to be 71%.

Regarding 210 (PVLDLFRELLEELKQKLK) [compound 210], the “He (%) free” value was determined as 20%, the “He (%) SUVs” value came to 37%, the “He (%) TFE” value stood at 53% and the “He (%) mics” value is recorded as 63%.

Consider “215 (Ac-PVLDLFRELLEEWKQKLK-NH2) [compound 215]”, for which the “He (%) free” value turned out to be 28%, the “He (%) SUVs” value is reported as 53%, the “He (%) TFE” value turned out to be 68% and the “He (%) mics” value worked out at 63%.

For 217 (PVLDLFRELLELLKQKLK) [compound 217], the “He (%) free” value came to 52%, the “He (%) SUVs” value was 76%, the “He (%) TFE” value worked out at 70% and the “He (%) mics” value was determined as 78%.

Turning to 220 (PVLDLFRELLEELQKKLK) [compound 220], the “He (%) free” value is 27%, the “He (%) SUVs” value was determined as 54%, the “He (%) TFE” value was found to be 64% and the “He (%) mics” value is recorded as 64%.

Turning to 223 (PVLDAFRELLEALAQLKK) [compound 223], the “He (%) free” value is 21%, the “He (%) SUVs” value amounted to 23%, the “He (%) TFE” value worked out at 51% and the “He (%) mics” value was determined as 56%.

“240 (Ac-DWLKAFYDKVAEKLKEAF-NH2) [compound 240]”: the “He (%) free” value was 16%, the “He (%) SUVs” value was found to be 59%, the “He (%) TFE” value amounted to 57% and the “He (%) mics” value is given as 68%.

With “DWFKAFYDKVAEKFKEAF [peptide 243, reference compound]”, the “He (%) free” value is 10%, the “He (%) SUVs” value was 50% and the “He (%) mics” value worked out at 64%.

Turning to “DWLKAFYDKVAEKLKEAF [peptide 244, reference compound]”, the “He (%) free” value stood at 9%, the “He (%) SUVs” value was found to be 13%, the “He (%) TFE” value worked out at 48% and the “He (%) mics” value is recorded as 40%.

The values are drawn from patent US6602854B1, “Branched multimeric Apo A-I agonist compounds” (priority 1997, dated 2003).
